Values of other authors in PMC8727504.

Target: sMMOH (Methylosinus trichosporium) (UniProt P27353)
Assay: competition

Kd: < 100 nM
Substance: MMOB (from UniProt P27356)
